The values below come from patent publication US20160145343A1.

The target of assay [1] is MUC1 on MUC1+ human cancer cell lines and tumor tissue (abnormal, e.g. hypoglycosylated, tumor MUC1) (human) (UniProt P15941). As to the kind of experiment: flow cytometry, SKBR-3 cells. In general terms: In flow cytometry, cells or beads pass a laser one at a time.
The target is the same in assay [2]. As to the kind of experiment: flow cytometry, BT20 cells.
The target is the same in assay [3]. Nature of the assay: flow cytometry, MCF-7 cells.
For assay [4] the target is unchanged. As to the kind of experiment: flow cytometry, PANC-1 cells.
Assay [5] shares this target. As to the kind of experiment: flow cytometry, MS+MUC1 cells.
The target is the same in assay [6]. Nature of the assay: flow cytometry, HPAF cells.
Assay [7] has the same target. Nature of the assay: immunohistochemistry, colon tissue microarray, malignant samples.
The target is the same in assay [8]. As to the kind of experiment: immunohistochemistry, colon tissue microarray, benign samples.
Assay [9] has the same target. Nature of the assay: flow cytometry, SKBR-3 cells, secondary antibody only.
Assay [10] has the same target. As to the kind of experiment: flow cytometry, HPAF cells, secondary antibody only.
Assay [11] shares this target. As to the kind of experiment: flow cytometry, MS+MUC1 cells, secondary antibody only.
The target is the same in assay [12]. As to the kind of experiment: flow cytometry, MCF-7 cells, secondary antibody only.
The target is the same in assay [13]. As to the kind of experiment: flow cytometry, BT20 cells, secondary antibody only.
The target is the same in assay [14]. Nature of the assay: flow cytometry, PANC-1 cells, secondary antibody only.
The target is the same in assay [15]. As to the kind of experiment: immunohistochemistry, colon tissue microarray.

Turning to “VU-3C6 (Abcam), mouse anti-MUC1 antibody”, the percentage of APC+ stained cells turned out to be 99.9% in assay [1]; 92.3% in [2]; 98.7% in [3]; 98.8% in assay [4]; 99.4% in [5]; 98.4% in assay [6].
“VU-4H5 (Abnova), mouse anti-MUC1 antibody”: the percentage of APC+ stained cells in assay [1] is 24.1%; in [2] it was 32.9%; in [3], 27.8%; in assay [4] it was 54.3%; in [5], 24.6%; in assay [6], 6.99%. In assay [7], this substance came in with an MUC1+ samples stained (of 114 MUC1+ malignant samples) of 49. The MUC1+ samples stained (of 3 MUC1+ benign samples) in [8] turned out to be 2.
On to “M-2nd. (APC-labeled secondary antibody only control for the mouse antibodies)”, for which the percentage of APC+ stained cells in [9] was 1.67%; in assay [10] it was 0.77%; in assay [11] it was 0.46%; in [12], 1.39%; in assay [13], 1.74%; in [14] it was 3.45%.
As for “Hu-2nd. (APC-labeled secondary antibody only control for the human antibodies)”, the percentage of APC+ stained cells amounted to 0.96% in assay [9]; 1.02% in assay [10]; 0.55% in assay [11]; 1.73% in [12]; 1.17% in [13]; 2.01% in assay [14].
In assay [7], “HMPV (BD Biosciences), mouse anti-MUC1 antibody” displayed an MUC1+ samples stained (of 114 MUC1+ malignant samples) of 114. In assay [15], this substance registered a samples MUC1+ by staining (of 6 benign samples) of 3 and a samples MUC1+ by staining (of 138 malignant samples) of 114. In [8], this substance yielded an MUC1+ samples stained (of 3 MUC1+ benign samples) of 3.
